Data from article PMC5963676.
Entries after “also recorded” stand apart in the source; their conditions may differ.

How the values were obtained:
[1] = target: His-tagged pantothenate synthetase with a C-terminal extension (PS-[LCGR]), expressed from pCA24N(-GFP) (E. coli); assay: ITC
[2] = target: His-tagged YfcD (putative Nudix hydrolase) expressed from pCA24N(-GFP) (E. coli); assay: ITC
[3] = target: His-tagged YfcD (putative Nudix hydrolase) expressed from pCA24N(-GFP); assay: fluorescence polarisation

“His-tagged YfcD (putative Nudix hydrolase) expressed from pCA24N(-GFP) (natural protein)” showed a Kd [1] of 30 µM.

In the case of “His-tagged pantothenate synthetase expressed from pET28a (from UniProt P31663 1-283) (enzyme)”, the Kd [2] is reported as 2.11 µM.

B1: FITC-labelled His-tagged pantothenate synthetase (pET28a), labelled by sortase on the N-terminal glycine (protein)
chain: MLIIETLPLLRQQIRRLRMEGKRVALVPTMGNLHDGHMKLVDEAKARADVVVVSIFVNPMQFDRPEDLARYPRTLQEDCEKLNKRKVDLVFAPSVKEIYPNGTETHTYVDVPGLSTMLEGASRPGHFRGVSTIVSKLFNLVQPDIACFGEKDFQQLALIRKMVADMGFDIEIVGVPIMRAKDGLALSSRNGYLTAEQRKIAPGLYKVLSSIADKLQAGERDLDEIITIAGQELNEKGFRADDIQIRDADTLLEVSETSKRAVILVAAWLGDARLIDNKMVELA
B1 was tested, and the K0.5 [3] was “K0.5 = 1.87 ± 0.08 μM; also recorded: K0.5 2.16 ± 0.11 μM”.
